Data set [1] is described as follows: Pharmacokinetic study in mice. Format: in vivo, mouse. The following applies: male NMRI mice; i.v. 92 nmol/kg; serum; Z variants as fusions to PP013-Z03638. As to the method:
Z11947, Z11946 and Z11948 fused to PP013-Z03638 were administered intravenously (i.v.) to male NMRI mice (Charles River, Germany) at a dose of 92 nmol/kg body weight. Sera from groups of three mice were obtained at 0.08, 6, 18, 78, 120, 168 and 240 hours. The concentration of respective Z variant was determined by ELISA.
Half-area 96-well ELISA plates were coated at 4° C. overnight with 50 μl/well of an Z specific goat antibody (produced in-house) diluted to 4 μg/ml in coating buffer (50 mM sodium carbonate, pH 9.6). The antibody solution was poured off and the wells were blocked with 100 μl of PBSC for 1.5 h at RT. The sera were diluted in PBSC plus 1% mouse serum (matrix) from 1:100 to 1:51,200 in a two-fold dilution series in a dilutions plate. […] Bound Z variants were detected with 50 μl/well of rabbit anti-PP013 Ig (produced in-house) diluted to 4 μg/ml in PBSC. […] After 15 minutes of development, the absorbance was measured at 450 nm using a multi-well plate reader (Victor^3). The absorbance values were analyzed using GraphPad Prism 5 to determine the concentrations (cubic-spline curve fit) and area under curve (AUC). […] The resulting curves followed a two compartment model and the terminal half-life was calculated as In2 divided by the slope based on the last three time points.

For a further data set, the target named is human FcRn (Homo sapiens, UniProt P55899). Kind of data set: Biacore analysis of Z variants fused to PP013-Z03638. The format is binding. Set-up: made in house; host or cells: human SKOV-3 cells, lentivirally transduced, secreted; purified on immobilized human IgG. Conditions: pH 6.0; 40, 160 and 640 nM. As to the method:
Expressed and purified Z variants fused to PP013-Z03638 were assayed against human FcRn at pH 6.0 essentially as described for the kinetic analysis in Example 3. The Z variants and the negative control Z03638-PP013 were injected at 40 nM, 160 nM and 640 nM during 1 minute followed by dissociation for 2.5 minutes and equilibration for 1 minute. Kinetic constants and affinities were determined for the Z variants using the BiaEvaluation software.
For orientation: In SPR one partner is held on a chip, and binding of the other changes the refractive index at the surface.

Sequence of human FcRn (P55899 24-290): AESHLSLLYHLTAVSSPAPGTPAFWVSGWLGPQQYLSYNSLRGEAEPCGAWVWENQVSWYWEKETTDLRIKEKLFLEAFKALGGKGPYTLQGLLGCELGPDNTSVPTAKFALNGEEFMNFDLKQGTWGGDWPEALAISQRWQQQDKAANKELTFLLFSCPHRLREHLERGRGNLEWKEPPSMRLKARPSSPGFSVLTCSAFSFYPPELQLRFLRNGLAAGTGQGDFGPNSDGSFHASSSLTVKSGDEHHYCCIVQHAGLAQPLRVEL
Sequence of human FcRn (P61769 21-119 partner): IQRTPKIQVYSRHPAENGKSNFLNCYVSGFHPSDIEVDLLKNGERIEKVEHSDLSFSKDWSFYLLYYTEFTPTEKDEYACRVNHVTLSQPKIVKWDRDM

For “Z03638-PP013: negative control molecule [Z03638]-GAP(G4S)4TS-[PP013]; Taq polymerase binding Z variant fused to albumin binding polypeptide”, the terminal half-life entry in data set [1] is reported as “approximately 43 hours”. In the data set with human FcRn, the “binding to FcRn” value was “negative against FcRn”.

The record behind these values is patent US9975943B2, “Polypeptides” (AFFIBODY AB, priority 2013, dated 2018).
